Source: patent publication US20020176853A1

Target: mouse pro-IL-1β (mouse) (UniProt P10749)
Assay: cell-based or functional assay

Sequence of UniProt P10749 (P10749 whole entry): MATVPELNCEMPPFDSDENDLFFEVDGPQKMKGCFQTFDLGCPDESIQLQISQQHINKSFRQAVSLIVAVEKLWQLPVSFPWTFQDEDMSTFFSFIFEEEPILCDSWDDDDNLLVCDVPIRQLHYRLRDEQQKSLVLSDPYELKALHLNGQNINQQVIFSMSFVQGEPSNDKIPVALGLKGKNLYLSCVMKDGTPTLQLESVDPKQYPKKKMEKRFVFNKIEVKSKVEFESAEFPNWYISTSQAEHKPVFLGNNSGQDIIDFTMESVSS

“pro-caspase-1 (full-length, wild-type) (from UniProt P29466 1-404) (enzyme)” gave a secretion of mature IL-1β into the culture medium (ELISA), COS-7 cells of 80 to 250 pg/mL.
